{"source": "patent US11911397B2", "about": "“Anordrin compositions and methods for treating diseases” (Zhejiang Jiachi Development Pharmaceuticals LTD, priority 2014, dated 2024)", "system": "MDA-MB-231 cells", "test": "MDA-MB-231 cell migration (matrixgel / transwell)", "assay_type": "cell-based", "settings": "10 nM E2 or 10 ng/ml EGF alone, 20 hours", "procedure": "As anordrin has been reported as an anti-angiogenic agent resulting in inhibition of cell migration and invasion (16), we studied its ability to modulate MDA-MB-231 cell migration using matrixgel. […] After 20 hours migrated cells were stained and quantified using a plate reader at 560 nm.\nTranswell and flow cytometry assay: Cells were starved for 48 hours in phenol red free medium containing 5% charcoal-stripped FBS, and then changed into phenol red free medium for an additional 24 hours. Transwell was performed following the Chemicon kit instructions (CAT #ECM551). Briefly, cells were trypsinized, washed using 1×DPBS containing Ca2+ and Mg2+ (Sigma) and resuspensed in serum and phenol red free medium at a cell density of 0.5×10^6 cells/ml.", "data": [{"molecule": "EGF: EGF, binds to Her1; used at 10 ng/ml as stimulus (protein, UniProt P01133 23-1207, looked up, Pro-epidermal growth factor, used at 10 ng/ml as stimulus) Pro-epidermal growth factor: PQHWSCPEGTLAGNGNSTCVGPAPFLIFSHGNSIFRIDTEGTNYEQLVVDAGVSVIMDFHYNEKRIYWVDLERQLLQRVFLNGSRQERVCNIEKNVSGMAINWINEEVIWSNQQEGIITVTDMKGNNSHILLSALKYPANVAVDPVERFIFWSSEVAGSLYRADLDGVGVKALLETSEKITAVSLDVLDKRLFWIQYNREGSNSLICSCDYDGGSVHISKHPTQHNLFAMSLFGDRIFYSTWKMKTIWIANKHTGKDMVRINLHSSFVPLGELKVVHPLAQPKAEDDTWEPEQKLCKLRKGNCSSTVCGQDLQSHLCMCAEGYALSRDRKYCEDVNECAFWNHGCTLGCKNTPGSYYCTCPVGFVLLPDGKRCHQLVSCPRNVSECSHDCVLTSEGPLCFCPEGSVLERDGKTCSGCSSPDNGGCSQLCVPLSPVSWECDCFPGYDLQLDEKSCAASGPQPFLLFANSQDIRHMHFDGTDYGTLLSQQMGMVYALDHDPVENKIYFAHTALKWIERANMDGSQRERLIEEGVDVPEGLAVDWIGRRFYWTDRGKSLIGRSDLNGKRSKIITKENISQPRGIAVHPMAKRLFWTDTGINPRIESSSLQGLGRLVIASSDLIWPSGITIDFLTDKLYWCDAKQSVIEMANLDGSKRRRLTQNDVGHPFAVAVFEDYVWFSDWAMPSVMRVNKRTGKDRVRLQGSMLKPSSLVVVHPLAKPGADPCLYQNGGCEHICKKRLGTAWCSCREGFMKASDGKTCLALDGHQLLAGGEVDLKNQVTPLDILSKTRVSEDNITESQHMLVAEIMVSDQDDCAPVGCSMYARCISEGEDATCQCLKGFAGDGKLCSDIDECEMGVPVCPPASSKCINTEGGYVCRCSEGYQGDGIHCLDIDECQLGEHSCGENASCTNTEGGYTCMCAGRLSEPGLICPDSTPPPHLREDDHHYSVRNSDSECPLSHDGYCLHDGVCMYIEALDKYACNCVVGYIGERCQYRDLKWWELRHAGHGQQQKVIVVAVCVVVLVMLLLLSLWGAHYYRTQKLLSKNPKNPYEESSRDVRSRRPADTEDGMSSCPQPWFVVIKEHQDLKNGGQPVAGEDGQAADGSMQPTSWRQEPQLCGMGTEQGCWIPVSSDKGSCPQVMERSFHMPSYGTQTLEGGVEKPHSLLSANPLWQQRALDPPHQMELTQ", "values": [{"measurement": "MDA-MB-231 cell migration", "value": "slightly enhanced"}]}]}
